Measurements taken from US20060115428A1 (MorphoSys, published 2006).
Changes are numbered by the printed parent chain. Values belong to the binder of their own block, whether it stands above or below them.

Columns and labels:
[1] = biological target: T1, recombinant fibronectin domain ED-B (His)6 (human, UniProt P02751 1266-1356); assay: SPR (BIAcore), ED-B immobilised on chip, Fab in flow
T1 construct: domain: ED-B; Produced by standard procedures; immobilised on ELISA plates or on the BIAcore chip; also called recombinant ED-B; human ED-B
Procedure: (§1) F1-Chips (Biacore, Sweden) were coated with about 200 RU of ED-B (30 μg/ml, 10 mmol of acetate buffer, pH 4.0) and reference flow cells with a corresponding amount of human serum albumin (20 μg/ml, 10 mmol of acetate buffer, pH 4.5) with use of standard EDC-NHS-amine-coupling chemistry. The antigen density was reduced to about 100 RU for the Fab characterization of the second maturation. The regeneration was carried out with 10 mmol of HCl. All kinetic measurements were carried out in PBS buffer (136 mmol of NaCl, 2.7 mmol of KCl, 10 mmol of Na₂HPO₄, 1.76 mmol of KH₂PO₄, pH 7.4) with a flow rate of 20 μl/minute with use of a Fab concentration range of 1.5-500 nmol. The injection period was 1 minute in each case. All sensograms were evaluated with use of BIA evaluation software 3.1.
The properties of twelve selected binding molecules was determined by BIAcore analysis (see Table 1). […] At least two independent measurements with Fab molecules from different batches were performed for protein expression and protein purification. The binding rate (Kₒₙ) and the dissociating-off rate (Koff) of the Fab molecule are indicated in separate columns.

[2] = biological target: T1, recombinant fibronectin domain ED-B …; assay: SPR (BIAcore), ED-B immobilised on chip (about 100 RU), Fab in flow
Procedure: as §1

[3] = biological target: T1, recombinant fibronectin domain ED-B …; assay: SPR (BIAcore); ratio to parent clone MOR02619
Procedure: as §1

[4] = biological target: T1, recombinant fibronectin domain ED-B …; assay: SPR (BIAcore), ED-B immobilised on chip, Fab in flow; remark: listed apart in the source
Procedure: as §1

B1: MOR02611 (Fab, V domains shown)
VH: QVQLVQSGAEVKKPGASVKVSCKASGYTFSGSYMHWVRQAPGQGLEWMGIINPASGKTLYAQKFQGRVTMTRDTSISTAYMELSSLRSEDTAVYYCARGLYYRFASWGQGTLVTVSS
VL: DIALTQPASVSGSPGQSITISCTGTSSDIGGYHSVSWYQQHPGKAPKLMIYRSNRPSGVSNRFSGSKSGNTASLTISGLQAEDEADYYCAAATGGWVFGGGTNLTVLG
notes: HuCAL GOLD Fab, VH1B/L2
- Kd [1]: 332 nM
- koff [1]: 0.051 s⁻¹
- kon [1]: 150000 M⁻¹ s⁻¹

B2: MOR02613 (Fab, V domains shown)
VH: QVQLVESGGGLVQPGGSLRLSCAASGFTFSNYTMTWVRQAPGKGLEWVSFIIGSGSNTSYADSVKGRFTISRDNSKNTLYLQMNSLRAEDTAVYYCARYVNGFDIWGQGTLVTVSS
VL: DIALTQPASVSGSPGQSITISCTGTSSDVGVYYYVSWYQQHPGKAPKLMIYYDSKRPSGVSNRFSGSKSGNTASLTISGLQAEDEADYYCQTYAKKDYSLVFGGGTKLTVLG
notes: HuCAL GOLD Fab, VH3/L2
- Kd [1]: 164 nM
- koff [1]: 0.13 s⁻¹
- kon [1]: 780000 M⁻¹ s⁻¹

B4: MOR02616 (Fab, V domains shown)
VH: QVQLVESGGGLVQPGGSLRLSCAASGFTFRNNAMHWVRQAPGKGLEWVSAISSSGSGTYYADSVKGRFTISRDNSKNTLYLQMNSLRAEDTAVYYCARVIVLFDYWGQGTLVTVSS
VL: DIVLTQSPATLSLSPGERATLSCRASQNVRSNLAWYQQKPGQAPRLLIYGASNRATGVPARFSGSGSGTDFTLTISSLEPEDFAVYYCLQKYSIPFTFGQGTKVEIKR
notes: HuCAL GOLD Fab, VH3/K3
- Kd [1]: 59 nM
- koff [1]: 0.028 s⁻¹
- kon [1]: 540000 M⁻¹ s⁻¹

Other lines, results leading:

- Kd [2]: 0.7 nM
- koff [2]: 0.0018 s⁻¹
- kon [2]: 2.9e+06 M⁻¹ s⁻¹
B3: MOR03243 (Fab, V domains shown)
VH: QVQLQESGPGLVKPGETLSLTCTVSGGSISSYYWSWIRQAPGKGLEWIGEIHRGGYTQYNPSLKSRVTISVDTSKNQFSLKLSSVTAADTAVYYCARFFDVWGQGTLVTVSS
VL: DIVLTQPPSVSGAPGQRVTISCSGSSSNIGSNTVRWYQQLPGTAPKLLIYSNNKRPSGVPDRFSGSKSGTSASLAITGLQSEDEADYYCQAWTRAHRYPVFGGGTKLTVLG
notes: Fab, H-CDR2 derivative of MOR03055

- x-Fold Improvement Relative to the Parent Clone, KD [3]: 3.8 fold
- x-Fold Improvement Relative to the Parent Clone, Koff [3]: 2.8 fold
- x-Fold Improvement Relative to the Parent Clone, Kon [3]: 1.4 fold
- Kd [4]: 4.2 nM
- koff [4]: 0.0047 s⁻¹
- kon [4]: 1.1e+06 M⁻¹ s⁻¹
B5: MOR03066 (Fab, V domains shown)
VH: QVQLQESGPGLVKPGETLSLTCTVSGGSISSYYWSWIRQAPGKGLEWIGIGHWGSTQYNPSLKGRVTISVDTSKNQFSLKLSSVTAEDTAVYYCARFFDVWGQGTLVTVSS
VL: DIVLTQPPSVSGAPGQRVTISCSGSSSNIGSNTVRWYQQLPGTAPKLLIYSNNKRPSGVPDRFSGSKSGTSASLAITGLQSEDEADYYCSSYDTQVTRVFGGGTKLTVLG
notes: Fab, L-CDR3 derivative of MOR02619

- x-Fold Improvement Relative to the Parent Clone, KD [3]: 5.4 fold
- x-Fold Improvement Relative to the Parent Clone, Koff [3]: 2.6 fold
- x-Fold Improvement Relative to the Parent Clone, Kon [3]: 2.2 fold
- Kd [4]: 3 nM
- koff [4]: 0.0051 s⁻¹
- kon [4]: 1.8e+06 M⁻¹ s⁻¹
B6: MOR03055 (Fab, V domains shown)
VH: B5 VH
VL: B3 VL
notes: as for B5

- x-Fold Improvement Relative to the Parent Clone, KD [3]: 5.1 fold
- x-Fold Improvement Relative to the Parent Clone, Koff [3]: 2.3 fold
- x-Fold Improvement Relative to the Parent Clone, Kon [3]: 2.3 fold
- Kd [4]: 3.1 nM
- koff [4]: 0.0057 s⁻¹
- kon [4]: 1.9e+06 M⁻¹ s⁻¹
B7: MOR03071 (Fab, V domains shown)
VH: B5 VH
VL: B5 VL with S90L, S91A, D93I, T94Q, Q95S, V96K, T97G, R98H
notes: as for B5

- x-Fold Improvement Relative to the Parent Clone, KD [3]: 6.8 fold
- x-Fold Improvement Relative to the Parent Clone, Koff [3]: 5 fold
- x-Fold Improvement Relative to the Parent Clone, Kon [3]: 1.4 fold
- Kd [4]: 2.4 nM
- koff [4]: 0.0026 s⁻¹
- kon [4]: 1.1e+06 M⁻¹ s⁻¹
B8: MOR03075 (Fab, V domains shown)
VH: B5 VH
VL: B5 VL with S90Q, Y92W, T94P, Q95R, V96S, T97F, R98T
notes: as for B5
